Assay results: the supplement of paper PMC10724198
± gives the standard deviation of the averaged measurements.

How the values were obtained:
Saccharomyces cerevisiae [1] = test: protein stability index of tFT-peptide fusion (C-terminal peptide) (PSI (0-1 scale)); higher = more stable (slower turnover)
Protocol: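 MPS profiling in S. cerevisiae of the tFT-X12 degron library: putative degron peptides plus stable controls, 12 aa, fused to the C-terminus of a sfGFP-mCherry timer. Cells are FACS-sorted into 8 mCherry/sfGFP bins and deep-sequenced. PSI runs from 0 (unstable) to 1 (stable). Backgrounds are wild type, das1Δ and doa10Δ at 30 °C, and wild type, das1Δ, cdc34-1 and cdc53-1 at 37 °C; 2-3 technical replicates each.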

Saccharomyces cerevisiae [2] = test: as above; details: genetic background: wild type; temperature: 30 C
[3] = genetic background: cdc34-1, temperature: 37 C
[4] = genetic background: cdc53-1, temperature: 37 C
[5] = genetic background: das1 deletion, temperature: 30 C
[6] = genetic background: das1 deletion, temperature: 37 C
[7] = genetic background: doa10 deletion, temperature: 30 C
[8] = genetic background: wild type, temperature: 30 C
[9] = genetic background: wild type, temperature: 37 C
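Further: PSI is a weighted mean of sequencing reads over stability bins, variants kept only with over 10 reads, mCherry proximal and sfGFP distal, peptide attached via GGGS linker.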

Sequence	protein stability index (Saccharomyces cerevisiae [1]; [3])	protein stability index (Saccharomyces cerevisiae [1]; [4])	protein stability index (Saccharomyces cerevisiae [1]; [5])	protein stability index (Saccharomyces cerevisiae [1]; [6])	protein stability index (Saccharomyces cerevisiae [1]; [7])	protein stability index (Saccharomyces cerevisiae [1]; [8])	protein stability index (Saccharomyces cerevisiae [1]; [9])	protein stability index (Saccharomyces cerevisiae [2])
RRQQNHRQLCAT	0.65 ± 0.092	0.708 ± 0.029	0.642 ± 0.028	0.7322 ± 0.0065	0.21 ± 0.018	0.259 ± 0.038	0.518 ± 0.038	0.401 ± 0.016
LCLRCQCIGTLS	0.54 ± 0.017	0.587 ± 0.014	0.45 ± 0.023	0.557 ± 0.012	0.413 ± 0.016	0.435 ± 0.013	0.54 ± 0.0091	0.489 ± 0.0097
IIGCIAICLMVN	0.0164 ± 0.0065	0.214 ± 0.25	0.0942 ± 0.042	0.0938 ± 0.019	0.0381 ± 0.015	0.0451 ± 0.016	0.0405 ± 0.027	0.0843 ± 0.012
AFLFLFSITCIV	0.181 ± 0.011	0.23 ± 0.0042	0.195 ± 0.029	0.342 ± 0.0063	0.197 ± 0.014	0.19 ± 0.028	0.313 ± 0.0012	0.241 ± 0.013
VICVVLSKVFLF	0.483 ± 0.054	0.5728 ± 0.0027	0.495 ± 0.027	0.588 ± 0.0071	0.416 ± 0.0083	0.393 ± 0.02	0.483 ± 0.013	0.444 ± 0.014
KKKEILVYIIQE	0.598 ± 0.036	0.612 ± 0.024	0.438 ± 0.029	0.578 ± 0.018	0.4732 ± 0.0016	0.512 ± 0.077	0.592 ± 0.02	0.484 ± 0.014
PVHARYCSLKWA	0.658 ± 0.037	0.741 ± 0.021	0.6329 ± 0.0026	0.7389 ± 0.0042	0.237 ± 0.036	0.279 ± 0.013	0.5159 ± 0.0024	0.373 ± 0.087
